Test results: patent publication US12760268, “Compositions and methods related to transferrin receptor-binding aptamers” (University of Washington)
Changes are numbered by the printed parent chain.

What was measured:
[1] = biological target: T1, Transferrin receptor 1 (TfR1, CD71), endogenous on cells (Homo sapiens, UniProt P02786 SEQ:89-760); experiment: flow; Jurkat cells, apparent Kd, 4 C; conditions: chain copies: 2 (stated homodimer)
[2] = biological target: T1, Transferrin receptor 1 (TfR1, CD71), …; experiment: flow; activated CD8+ T cells, apparent Kd, 4 C; conditions: chain copies: 2 (stated homodimer); label: biotin; 3' 8-nt toehold overhang, redesigned stem
[3] = biological target: T1, Transferrin receptor 1 (TfR1, CD71), …; experiment: flow; activated CD4+ T cells, apparent Kd, 4 C; conditions: chain copies: 2 (stated homodimer); label: biotin; 3' 8-nt toehold overhang, redesigned stem
[4] = biological target: T2, Transferrin receptor 1 (TfR1, CD71) (Homo sapiens, UniProt P02786 SEQ:89-760); experiment: BLI; no appreciable binding, single concentration; conditions: tags: biotinylated, ACROBiosystems TfR-H82E5, immobilized on streptavidin biosensor; chain copies: 2; label: 5'-FAM
T2 sequence (P02786 89-760): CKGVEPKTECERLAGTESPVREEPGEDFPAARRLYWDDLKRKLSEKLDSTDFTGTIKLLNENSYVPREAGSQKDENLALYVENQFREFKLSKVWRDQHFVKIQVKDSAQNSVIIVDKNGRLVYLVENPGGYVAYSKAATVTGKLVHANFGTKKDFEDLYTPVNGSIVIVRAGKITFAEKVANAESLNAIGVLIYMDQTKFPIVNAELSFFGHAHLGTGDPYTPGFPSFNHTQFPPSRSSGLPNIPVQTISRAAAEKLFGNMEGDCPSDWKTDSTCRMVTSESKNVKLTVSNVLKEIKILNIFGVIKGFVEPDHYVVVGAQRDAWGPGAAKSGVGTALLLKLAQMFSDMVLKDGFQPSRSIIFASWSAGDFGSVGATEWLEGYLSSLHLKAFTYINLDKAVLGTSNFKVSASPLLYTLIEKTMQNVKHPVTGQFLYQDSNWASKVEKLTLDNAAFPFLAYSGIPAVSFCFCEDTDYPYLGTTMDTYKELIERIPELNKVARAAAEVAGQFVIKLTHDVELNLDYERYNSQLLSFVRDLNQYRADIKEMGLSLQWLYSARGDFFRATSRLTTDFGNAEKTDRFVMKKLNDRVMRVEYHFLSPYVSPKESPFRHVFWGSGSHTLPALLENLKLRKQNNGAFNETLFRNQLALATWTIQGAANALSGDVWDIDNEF

[5] = biological target: T3, Cellular nucleic acid-binding protein (CNBP, ZNF9) (Homo sapiens, UniProt P62633 P62633:1-177); experiment: BLI; conditions: tags: His-tag, Novus Biologicals NBP2-22742, immobilized on Ni-NTA biosensor
T3 sequence (P62633 whole entry, one chain of several): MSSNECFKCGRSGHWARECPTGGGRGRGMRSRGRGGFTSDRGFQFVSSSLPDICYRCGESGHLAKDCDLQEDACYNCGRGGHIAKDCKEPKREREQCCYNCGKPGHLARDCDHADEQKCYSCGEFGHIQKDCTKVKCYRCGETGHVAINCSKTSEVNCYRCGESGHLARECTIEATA

[6] = biological target: T2, Transferrin receptor 1 (TfR1, CD71); experiment: BLI; negative control; conditions: tags: biotinylated, ACROBiosystems TfR-H82E5, immobilized on streptavidin biosensor; chain copies: 2; label: 5'-FAM, 5'-Cy5 or 5'-biotin
[7] = biological target: T1, Transferrin receptor 1 (TfR1, CD71), …; experiment: flow; H9 cells, apparent Kd (+/-0.2), 4 C; conditions: chain copies: 2 (stated homodimer); label: 5'-FAM, 5'-Cy5 or 5'-biotin; hairpin
[8] = biological target: T2, Transferrin receptor 1 (TfR1, CD71); experiment: BLI; 25 C, 5.5 mM Mg, 1:1 fit; conditions: tags: biotinylated, ACROBiosystems TfR-H82E5, immobilized on streptavidin biosensor, chain copies: 2
[9] = biological target: T2, Transferrin receptor 1 (TfR1, CD71); experiment: BLI; 25 C, 5.5 mM Mg, 1:1 fit; tRNA and salmon sperm DNA present; conditions: tags: biotinylated, ACROBiosystems TfR-H82E5, immobilized on streptavidin biosensor; chain copies: 2; label: 5'-FAM (with added 5' T), 5'-Cy5 or 5'-biotin; multi-hairpin on stem; G-quadruplex predicted
[10] = biological target: T3, Cellular nucleic acid-binding protein …; experiment: BLI; 2:1 heterogeneous ligand fit, second Kd; off-target; conditions: tags: His-tag, Novus Biologicals NBP2-22742, immobilized on Ni-NTA biosensor; label: 5'-FAM (with added 5' T), 5'-Cy5 or 5'-biotin; multi-hairpin on stem; G-quadruplex predicted
[11] = biological target: T1, Transferrin receptor 1 (TfR1, CD71), …; experiment: flow; H9 cells, apparent Kd (+/-13.0), 4 C; conditions: chain copies: 2 (stated homodimer); label: 5'-FAM (with added 5' T), 5'-Cy5 or 5'-biotin; multi-hairpin on stem; G-quadruplex predicted
[12] = biological target: T3, Cellular nucleic acid-binding protein …; experiment: BLI; 2:1 heterogeneous ligand fit, first Kd; off-target; conditions: tags: His-tag, Novus Biologicals NBP2-22742, immobilized on Ni-NTA biosensor; label: 5'-FAM (with added 5' T), 5'-Cy5 or 5'-biotin; multi-hairpin on stem; G-quadruplex predicted
[13] = biological target: Transferrin receptor 1 (mTfR1) (Mus musculus, UniProt Q62351 SEQ:89-763); experiment: BLI; 200 nM mTfR1 over immobilized biotinylated aptamer; conditions: tags: His-tag, Sino Biological 50741-M07H; chain copies: 2; label: 5'-FAM (with added 5' T), 5'-Cy5 or 5'-biotin; multi-hairpin on stem; G-quadruplex predicted
Chain of Transferrin receptor 1 (mTfR1) (Q62351 89-763): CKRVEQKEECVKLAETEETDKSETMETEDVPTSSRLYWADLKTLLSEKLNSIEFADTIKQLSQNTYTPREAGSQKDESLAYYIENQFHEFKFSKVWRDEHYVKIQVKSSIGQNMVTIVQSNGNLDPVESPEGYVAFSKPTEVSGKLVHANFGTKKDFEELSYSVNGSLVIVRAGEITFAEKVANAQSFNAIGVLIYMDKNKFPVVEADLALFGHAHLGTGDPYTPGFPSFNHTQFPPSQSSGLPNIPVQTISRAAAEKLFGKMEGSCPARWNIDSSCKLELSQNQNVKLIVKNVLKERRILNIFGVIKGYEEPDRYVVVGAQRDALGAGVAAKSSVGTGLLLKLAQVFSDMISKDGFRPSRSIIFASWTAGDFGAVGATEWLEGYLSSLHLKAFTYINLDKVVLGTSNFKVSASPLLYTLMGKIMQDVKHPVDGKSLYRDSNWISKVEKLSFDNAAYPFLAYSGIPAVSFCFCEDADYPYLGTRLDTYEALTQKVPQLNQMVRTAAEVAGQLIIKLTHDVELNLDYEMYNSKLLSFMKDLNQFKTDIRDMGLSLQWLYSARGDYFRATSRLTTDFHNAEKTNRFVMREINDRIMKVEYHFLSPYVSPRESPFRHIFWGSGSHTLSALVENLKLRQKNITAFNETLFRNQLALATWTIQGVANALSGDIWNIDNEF

[14] = biological target: T1, Transferrin receptor 1 (TfR1, CD71), …; experiment: flow; Jurkat cells, apparent Kd, 4 C; TfR1-independent component present; conditions: chain copies: 2 (stated homodimer); label: 5'-FAM (with added 5' T), 5'-Cy5 or 5'-biotin; multi-hairpin on stem; G-quadruplex predicted
[15] = biological target: T1, Transferrin receptor 1 (TfR1, CD71), …; experiment: flow; H9 cells, apparent Kd, 4 C; conditions: chain copies: 2 (stated homodimer); label: 5'-FAM or 5'-Cy5; multi-hairpin with extended stem
[16] = label: 5'-FAM, 5'-Cy5 or 5'-biotin, hairpin

T1 sequence (P02786 89-760): as the sequence (P02786 89-760) above

B1: rvCD71apt (JBA1.2) (ssDNA)
DNA: GGAGTCACACGCATTAGCGTAAAGGGGGTGTTTGTGCGGTGTGGAGTGCGCGTGCTAATGCTGGAGTGTTTCCCAGGACCC
[1]; label: biotin, 3' 8-nt toehold overhang, redesigned stem
  Kd: 35.2 nM
[2]
  Kd: 35 nM
[3]
  Kd: 28.5 nM

B2: JBA8.11 (ssDNA)
DNA: ATCCAGAGTGACGCAGCAGCCGGTCGCAGATGCAAATGCCCGACAGGGGGACGCGGGCTGCCATGGACACGGTGGCTTAGT
[4]
  binding result: no binding

B3: JBA8.15 (ssDNA)
DNA: ATCCAGAGTGACGCAGCACTCTCGGGGGGTAGGTGGGAAGGGGGCCGCCCCCTGGGTTAGGCTTGGACACGGTGGCTTAGT
[4]
  binding result: no binding

B4: JBA8.7 (ssDNA)
DNA: ATCCAGAGTGACGCAGCAACCACAGATGCAAATGCGCGAGAGCGGGACGGTTTGCTAGGCTCATGGACACGGTGGCTTAGT
[4]
  binding result: no binding

B5: JBA8.4 (ssDNA)
DNA: ATCCAGAGTGACGCAGCAACCCAAACCACCAGCCGGGGATGCAAACACCGCACAGGGAACGGCTGGACACGGTGGCTTAGT
[4]
  binding result: no binding

B6: RANL (ssDNA)
DNA: ATCCAGAGTGACGCAGCAAATTCCAAACTCGAGTAAGCGTAGAGCCTCTCATCGCCTCAATAATGGACACGGTGGCTTAGT
[5]; label: 5'-FAM, 5'-Cy5 or 5'-biotin
  binding result: no binding
[6]
  binding result: no binding

B7: XQ-2d (ssDNA)
DNA: ACTCATAGGGTTAGGGGCTGCTGGCCAGATACTCAGATGGTAGGGTTACTATGAGC
[7]
  Kd: 2.2 nM
[5]; [16]
  binding result: no binding
[8]; [16]
  Kd: 14.4 nM

B8: JBA8.3 (ssDNA)
DNA: ATCCAGAGTGACGCAGCAGGGGCCGCGGATGCAAACGCCCGATAGGGGGACGGCACTGGAGCTTGGACACGGTGGCTTAGT
[4]
  binding result: no binding

B9: tJBA8.1 (ssDNA)
DNA: GCAGCAGCGTAAAGGGGGTGTTTGTGCGGTGTGGAGTGCGCGTGCTGCTGC
[9]
  Kd: 25.1 nM
[10]
  Kd: 8.07 nM
[11]
  Kd: 25.6 nM
[12]
  Kd: 1.85 nM
[13]
  binding result: no binding
[14]
  Kd: 10.9 nM

B10: tJBA8.1 GGGAG (ssDNA)
DNA: B9 DNA with G17A
[5]
  binding result: no binding

B11: tJBA8.1 GGGGC (ssDNA)
DNA: B9 DNA with G18C
[5]
  binding result: no binding

B12: tJBA8.1 GGAGG (ssDNA)
DNA: B9 DNA with G16A
[5]
  binding result: no binding

B13: JBA8.26 (ssDNA)
DNA: ATCCAGAGTGACGCAGCAGCGTAAAGGGGGTGTTTGTGCGGTGTGGAGTGCGCGCGCTGCTGCTGGACACGGTGGCTTAGT
[15]
  Kd: 3.3 nM
[8]; label: 5'-FAM or 5'-Cy5, multi-hairpin with extended stem
  Kd: 6.87 nM

B14: JBA8.1 (ssDNA)
DNA: B13 DNA with C55T
[1]; label: 5'-FAM or 5'-Cy5, multi-hairpin on stem, G-quadruplex predicted
  Kd: 5.5 nM
